From paper PMC5014597 come the findings set out here.

Where two headings read alike, the source gives them in different places.

Assay [1] concerns the target TDP-43 C-terminal domain (residues 267-414) M337V (human) (UniProt Q13148).
Assay [2] concerns the target TDP-43 C-terminal domain (residues 267-414), wild type (human) (UniProt Q13148). Briefly: 15N CPMG relaxation dispersion NMR.
For assay [3] the target is unchanged. As to the kind of experiment: 15N CPMG relaxation dispersion NMR. This is another data set of the same source.

“TDP-43 C-terminal domain (residues 267-414) M337V (from UniProt Q13148 267-414) (domain or fragment)” registered a decrease of turbidity of 20 µM CTD in 150 mM NaCl against wild type in assay [1] of 50%.
As a reminder, the koff is a measure of how fast the partners let go of each other. Read a high koff as fast dissociation. Regarding “TDP-43 C-terminal domain (residues 267-414), wild type (from UniProt Q13148 267-414) (domain or fragment)”, in assay [2], the kex (kon + koff, global exchange rate) was 1000 s⁻¹ and the koff came to 970 s⁻¹. Besides, in assay [3], the kex (kon + koff, global exchange rate) was 1200 s⁻¹ and the koff came to 1100 s⁻¹.
